US11932908B2, “Compositions and methods for diagnosis and treatment of epilepsy” (THE REGENTS OF THE UNIVERSITY OF CALIFORNIA, priority 2004, dated 2024)
Numbering of substitutions follows the chain as printed. Names may count otherwise. “Also recorded” adds a separate entry of the source. Like-named read-outs stand apart in the source and are kept apart here.

B1: P77T/R221H: EFHC1 protein with the double mutation P77T and R221H (protein)
chain: MVSNPVHGLPFLPGTSFKDSTKTAFHRSQTLSYRNGYAIVRRPTVGIGGDRLQFNQLSQAELDELASKAPVLTYGQTKQAPPADFIPAHVAFDKKVLKFDAYFQEDVPMSTEEQYRIRQVNIYYYLEDDSMSVIEPVVENSGILQGKLIKRQRLAKNDRGDHYHWKDLNRGINITIYGKTFRVVDCDQFTQVFLESQGIELNPPEKMALDPYTELRKQPLHKYVTPSDFDQLKQFLTFDKQVLRFYAIWDDTDSMYGECRTYIIHYYLMDDTVEIREVHERNDGRDPFPLLMNRQRVPKVLVENAKNFPQCVLEISDQEVLEWYTAKDFIVGKSLTILGRTFFIYDCDPFTRRYYKEKFGITDLPRIDVSKREPPPVKQELPPYNGFGLVEDSAQNCFTLIPKAPKKDVIKMLVNDNKVLRYLAVLESPIPEDKDRRFVFSYFLATDMISIFEPPVRNSGIIGGKYLGRTKVVKPYSTVDNPVYYGPSDFFIGAVIEVFGHRFIILDTDEYVLKYMESNAAQYSPEALASIQNHVRKREAPAPEAESKQTEKDPGVQELEALIDTIQKQLKDHSCKDNIREAFQIYDKEASGYVDRDMFFKICESLNVPVDDSLVKELIRMCSHGEGKINYYNFVRAFSN
B2: F229L: EFHC1 protein with JME missense mutation F229L (Phe229Leu) (protein)
chain: B1 chain with T77P, H221R, F229L
B3: R159W: EFHC1 protein with coding polymorphism R159W (Arg159Trp) (protein)
chain: B1 chain with T77P, R159W, H221R
B4: P77T: EFHC1 protein with JME missense mutation P77T (Pro77Thr) (protein)
chain: B1 chain with H221R
B5: D253Y: EFHC1 protein with JME missense mutation D253Y (Asp253Tyr) (protein)
chain: B1 chain with T77P, H221R, D253Y
B6: R221H: EFHC1 protein with JME missense mutation R221H (Arg221His) (protein)
chain: B1 chain with T77P
B7: R182H: EFHC1 protein with coding polymorphism R182H (Arg182His) (protein)
chain: B1 chain with T77P, R182H, H221R
B8: D210N: EFHC1 protein with JME missense mutation D210N (Asp210Asn) (protein)
chain: B1 chain with T77P, D210N, H221R
B9: 1619L: EFHC1 protein with coding polymorphism I619L (protein, UniProt Q5JVL4 1-640, looked up, variant I619L)
EF-hand domain-containing …: B1 chain with T77P, H221R, T399A, I619L

Key:
[1] = cited from earlier work
[2] = test system: JME seizures; conditions: JME patients, cited from earlier work
[3] = test system: T type VDCC; conditions: thalamic neurons, cited from earlier work
[4] = test system: mouse hippocampal primary culture neurons; conditions: 24, 36 and 48 hours after transfection; mutants compared to wild-type EFHC1
Description: Mouse hippocampal neurons primary culture. Hippocampal neurons were isolated from embryonic day 16 mice and plated at 1-2×10^5 cells per well in 24 well plate containing glass coverslips coated with poly-1-lysine and grown in serum-free NEUROBASAL™ media supplemented with B27, 0.5 mM L-glutamine (Invitrogen).
Transfection and immunostaining of mouse hippocampal neurons. […] Cultures were fixed with 4% paraformaldehyde in PBS 16 and 48 hours after transfection, permeabilized with 0.3% Triton X-100, blocked in 3% normal goat serum in PBS, and treated with mouse monoclonal anti-MAP-2 antibody (1:500; Sigma) and Alexa fluor 594 goat anti-mouse IgG antibody (1:1000; Molecular Probes).
TUNEL assay. […] Forty-eight hours after transfection, neuronal apoptosis was detected using DeadEndTM Fluorometric TUNEL System (Promega). Nuclei were visualized with Hoescht 33342 (Molecular Probes). These cells were also stained with anti-Myc antibody (1:200; Cell Signaling) and Alexa fluor 594 goat anti-rabbit IgG antibody (1:1000). All experiments were carried out in duplicate wells and at least repeated three times. Neuron cells were observed on a confocal microscope (OLYMPUS FLUOVIEW) following 48 hours post transfection.
Cell death analyses with EFHC1 mutants. […] Surviving cell numbers were scored by counting GFP fluorescent-positive cells that attached to dishes. At each counting, detached cells (dead cells) were carefully removed by changing culture medium. Morphologies of cells (cell shape, length and number of neurites, shrinkage, etc.) were not considered for the counting. Surviving cell numbers were scored at 24, 36, and 48 hours after transfection. Analyses were repeated twice by using two independently prepared expression construct DNAs. In total, neurons in seven wells of 24 well plates were counted for each transfection and time point. Experiments were performed in a blinded fashion.

[5] = biological target: T1, R-type VDCC (Cav2.3) (Oryctolagus cuniculus, UniProt Q02343); assay: Patch-clamp analyses of BHK cells stably expressing Cav2.3 transfected with EFHC1 constructs; type: cell-based; conditions: whole cell patch-clamp, 24-48 hr after transfection
T1 construct: expressed in transfected cells; host or cells: BHK (BII-104-2) cells
Description: Electrophysiological analysis. A baby hamster kidney (BHK) cell line BHK (BII-104-2) stably transfected with the ociE (BII), α2/δ and β1a subunits, were cultured in DMEM medium containing 10% fetal bovine serum (FBS), 30 U/mL penicillin and 30 μg/mL streptomycin. To transiently express wild type or mutant EFHC1, BHK (BII-104-2) cells were transfected with the pEGFP-C2 plasmids (Clonetech) containing EGFP fused with cDNA for EFHC1 or its mutants using SuperFect Transfection Reagent (QIAGEN). For control experiments, EGFP was transiently expressed by transfecting BHK (BII-104-2) with the same amount of pEGFP without the EFHC1 inserts. Cells were trypsinized, diluted with the DMEM medium, and plated onto glass coverslips 18 hrs after transfection. Ca^2+ currents were recorded 24-48 hr after transfection from GFP-positive cells. Currents from BHK (BII-104-2) cells were recorded at room temperature (22-25° C.) using patch-clamp techniques of whole cell mode with an EPC-9 amplifier (HEKA, Germany). Patch pipettes were made from borosilicate glass capillaries (1.5 mm outer diameter and 0.87 mm inner diameter; Hilgenberg) by using a model P-97 Flaming-Brown micropipette puller (Sutter Instrument Co., CA). Pipette resistance ranged from 2 to 3 MΩ when filled with the pipette solutions described below. The series resistance was electronically compensated to >70% and both the leakage and the remaining capacitance were subtracted by −P/6 method. Currents were sampled at 100 kHz in activation kinetics, otherwise sampled at 50 kHz and filtered at 10 kHz. Calcium currents were recorded in an external solution that contained (in mM): 3 CaCl2, 148 tetraethylammonium chloride (TEA-C1), 10 glucose, and 10 HEPES, pH adjusted to 7.4 with Tris-OH. The pipette solution contained (in mM): 85 Cs-aspartate, 40 CsCl, 4 MgCl2, 5 EGTA, 2 ATP2Na, 5 HEPES, and 8 creatine-phosphate, pH adjusted to 7.4 with CsOH. To determine voltage-dependence of activation, amplitude of tail currents at −50 mV after 5 ms test pulse (−40 to 90 mV) was normalized to the maximal tail current amplitude. […]

[6] = biological target: T2, PQ type VDCC (Cav2.1) (Oryctolagus cuniculus, UniProt P27884); assay: Patch-clamp analyses of HEK cell line with P/Q type VDCCs and wild type EFHC1 or mutant constructs; type: cell-based; conditions: for Activation V0.5 (mV): half-maximal voltage of activation; for Activation V0.5 (mV) / Inactivation V0.5 (mV) / Activation k (mV) / Inactivation K (mV): mean ± SEM; for Inactivation V0.5 (mV): half-maximal voltage of inactivation; for inactivation speed of P/Q type VDCC (decelerating effect on calcium inactivation): patch-clamp; for Activation k (mV) / Inactivation K (mV): slope factor; for Ca2+ current density of P/Q-type VDCC (Cav2.1): cells co-transfected with P/Q-type VDCC and EFHC1 constructs
T2 construct: expressed in transfected cells; host or cells: HEK cell line
T2 sequence (P27884 whole entry): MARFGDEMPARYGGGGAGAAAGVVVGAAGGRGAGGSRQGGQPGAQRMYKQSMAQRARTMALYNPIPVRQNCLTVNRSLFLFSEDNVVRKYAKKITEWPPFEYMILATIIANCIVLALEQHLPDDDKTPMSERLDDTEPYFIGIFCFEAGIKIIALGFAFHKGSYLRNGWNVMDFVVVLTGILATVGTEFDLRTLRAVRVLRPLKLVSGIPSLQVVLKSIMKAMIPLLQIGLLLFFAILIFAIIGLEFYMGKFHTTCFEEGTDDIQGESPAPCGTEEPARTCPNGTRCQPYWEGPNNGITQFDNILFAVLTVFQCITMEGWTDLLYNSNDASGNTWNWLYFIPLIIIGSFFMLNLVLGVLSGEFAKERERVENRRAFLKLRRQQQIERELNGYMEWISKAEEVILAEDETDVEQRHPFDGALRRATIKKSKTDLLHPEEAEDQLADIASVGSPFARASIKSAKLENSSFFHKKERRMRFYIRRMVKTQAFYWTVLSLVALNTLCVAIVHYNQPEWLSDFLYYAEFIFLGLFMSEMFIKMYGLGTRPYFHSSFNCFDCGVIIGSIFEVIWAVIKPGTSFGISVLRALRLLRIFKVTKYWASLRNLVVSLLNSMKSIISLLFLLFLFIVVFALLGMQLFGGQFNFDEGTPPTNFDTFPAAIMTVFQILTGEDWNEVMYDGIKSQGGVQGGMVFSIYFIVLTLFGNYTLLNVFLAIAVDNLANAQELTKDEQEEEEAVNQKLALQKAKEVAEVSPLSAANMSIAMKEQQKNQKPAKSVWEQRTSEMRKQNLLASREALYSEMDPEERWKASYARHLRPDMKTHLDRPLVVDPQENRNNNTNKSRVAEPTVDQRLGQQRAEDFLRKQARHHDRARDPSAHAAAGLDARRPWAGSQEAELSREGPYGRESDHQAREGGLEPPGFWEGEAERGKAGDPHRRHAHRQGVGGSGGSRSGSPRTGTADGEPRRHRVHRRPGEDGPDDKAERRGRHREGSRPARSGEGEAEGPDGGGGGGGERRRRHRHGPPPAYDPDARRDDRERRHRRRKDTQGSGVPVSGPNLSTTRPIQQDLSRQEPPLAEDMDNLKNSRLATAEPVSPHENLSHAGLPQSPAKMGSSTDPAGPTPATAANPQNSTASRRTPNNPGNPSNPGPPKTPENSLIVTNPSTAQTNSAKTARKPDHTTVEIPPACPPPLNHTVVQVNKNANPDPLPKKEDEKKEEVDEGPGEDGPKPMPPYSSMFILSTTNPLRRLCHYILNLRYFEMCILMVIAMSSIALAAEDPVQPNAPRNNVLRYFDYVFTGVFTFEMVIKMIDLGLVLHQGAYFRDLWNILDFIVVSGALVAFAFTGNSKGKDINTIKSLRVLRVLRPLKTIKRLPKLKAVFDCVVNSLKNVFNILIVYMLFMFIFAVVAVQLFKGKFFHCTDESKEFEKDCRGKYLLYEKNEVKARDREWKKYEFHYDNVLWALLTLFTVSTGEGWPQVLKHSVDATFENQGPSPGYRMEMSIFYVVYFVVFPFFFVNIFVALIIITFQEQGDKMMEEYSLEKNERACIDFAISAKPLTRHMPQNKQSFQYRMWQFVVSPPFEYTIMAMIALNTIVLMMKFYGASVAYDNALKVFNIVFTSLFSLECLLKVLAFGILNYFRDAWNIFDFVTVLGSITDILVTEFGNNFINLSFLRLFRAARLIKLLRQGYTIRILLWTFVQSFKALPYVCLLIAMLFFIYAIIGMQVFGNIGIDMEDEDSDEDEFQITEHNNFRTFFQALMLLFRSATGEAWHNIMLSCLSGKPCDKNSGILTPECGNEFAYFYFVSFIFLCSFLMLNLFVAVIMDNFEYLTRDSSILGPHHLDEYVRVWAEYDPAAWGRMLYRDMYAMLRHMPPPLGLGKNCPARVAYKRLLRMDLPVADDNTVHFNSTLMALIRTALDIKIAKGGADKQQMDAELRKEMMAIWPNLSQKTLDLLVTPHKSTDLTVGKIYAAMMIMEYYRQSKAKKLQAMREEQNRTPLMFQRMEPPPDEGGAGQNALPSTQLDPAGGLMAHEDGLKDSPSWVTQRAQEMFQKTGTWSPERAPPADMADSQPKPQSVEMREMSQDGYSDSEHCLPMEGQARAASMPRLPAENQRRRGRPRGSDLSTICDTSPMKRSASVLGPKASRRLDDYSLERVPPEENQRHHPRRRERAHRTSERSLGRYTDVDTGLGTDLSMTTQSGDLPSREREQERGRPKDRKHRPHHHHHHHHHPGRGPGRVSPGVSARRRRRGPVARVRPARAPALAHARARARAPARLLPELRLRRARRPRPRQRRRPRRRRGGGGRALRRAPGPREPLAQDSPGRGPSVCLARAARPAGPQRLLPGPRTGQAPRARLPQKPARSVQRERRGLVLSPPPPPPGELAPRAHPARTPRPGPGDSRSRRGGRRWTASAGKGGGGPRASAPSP
T2 sequence (P13806 27-1106 partner): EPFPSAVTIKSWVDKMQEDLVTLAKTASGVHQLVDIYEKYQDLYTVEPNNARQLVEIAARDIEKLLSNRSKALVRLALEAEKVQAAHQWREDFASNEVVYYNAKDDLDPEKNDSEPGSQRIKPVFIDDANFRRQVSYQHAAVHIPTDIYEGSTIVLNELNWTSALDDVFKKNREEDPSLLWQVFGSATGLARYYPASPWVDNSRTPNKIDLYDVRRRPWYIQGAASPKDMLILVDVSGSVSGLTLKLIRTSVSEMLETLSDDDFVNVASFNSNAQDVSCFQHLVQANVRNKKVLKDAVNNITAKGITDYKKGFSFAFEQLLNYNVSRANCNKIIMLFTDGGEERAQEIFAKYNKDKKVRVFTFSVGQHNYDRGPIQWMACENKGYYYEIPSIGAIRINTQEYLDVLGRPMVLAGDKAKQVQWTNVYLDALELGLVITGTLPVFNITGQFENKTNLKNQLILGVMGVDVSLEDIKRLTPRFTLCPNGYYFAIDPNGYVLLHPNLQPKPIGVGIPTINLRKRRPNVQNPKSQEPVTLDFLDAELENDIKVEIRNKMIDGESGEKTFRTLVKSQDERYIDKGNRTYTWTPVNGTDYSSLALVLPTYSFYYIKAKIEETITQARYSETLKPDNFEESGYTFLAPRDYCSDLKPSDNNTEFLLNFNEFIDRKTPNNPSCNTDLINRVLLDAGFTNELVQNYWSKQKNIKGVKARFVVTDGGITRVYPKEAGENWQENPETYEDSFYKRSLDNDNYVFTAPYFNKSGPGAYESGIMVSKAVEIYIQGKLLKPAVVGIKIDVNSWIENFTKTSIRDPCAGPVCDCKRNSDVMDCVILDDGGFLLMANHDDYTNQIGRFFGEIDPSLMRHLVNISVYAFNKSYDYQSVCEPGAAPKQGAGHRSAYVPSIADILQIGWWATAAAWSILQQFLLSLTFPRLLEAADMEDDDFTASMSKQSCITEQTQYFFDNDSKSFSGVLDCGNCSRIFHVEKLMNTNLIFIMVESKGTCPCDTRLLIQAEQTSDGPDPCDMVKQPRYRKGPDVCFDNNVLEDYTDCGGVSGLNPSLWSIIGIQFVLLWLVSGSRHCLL
T2 sequence (P19517 whole entry partner): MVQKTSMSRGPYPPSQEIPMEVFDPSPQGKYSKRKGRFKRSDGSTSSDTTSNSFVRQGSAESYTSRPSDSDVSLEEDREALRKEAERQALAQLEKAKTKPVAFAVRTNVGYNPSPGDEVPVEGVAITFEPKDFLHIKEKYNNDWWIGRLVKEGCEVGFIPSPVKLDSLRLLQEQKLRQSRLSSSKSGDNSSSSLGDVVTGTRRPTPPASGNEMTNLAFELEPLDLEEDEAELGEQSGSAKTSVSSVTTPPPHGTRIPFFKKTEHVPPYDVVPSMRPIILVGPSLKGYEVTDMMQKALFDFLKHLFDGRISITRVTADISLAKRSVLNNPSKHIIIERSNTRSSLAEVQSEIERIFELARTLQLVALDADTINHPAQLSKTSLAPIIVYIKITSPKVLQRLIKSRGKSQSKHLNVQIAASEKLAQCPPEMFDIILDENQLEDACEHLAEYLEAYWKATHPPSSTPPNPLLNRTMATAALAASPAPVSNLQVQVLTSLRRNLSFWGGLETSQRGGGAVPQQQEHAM

Molecule	Seizure protecting plasma concentrations in humans [1] [µg/mL]	cell-death effect (GFP-positive surviving cell numbers) [4]	Activation V0.5 (mV) [6] [mV]	Inactivation V0.5 (mV) [6] [mV]	Activation k (mV) [6] [mV]	Inactivation K (mV) [6] [mV]	other results
CCC1(c2ccccc2)C(=O)NC(=O)NC1=O [Phenobarbital]	10 to 40	–	–	–	–	–	–
NC(=O)N1c2ccccc2C=Cc2ccccc21 [Carbamazepine]	4 to 10	–	–	–	–	–	absences in JME [2]: make absence appear for the first time; effect on JME seizures [2]: can make seizures worse; also recorded: have no effects on or aggravate JME seizures; effect on JME seizures ([2]; listed as carbamezapine): can make seizures worse
O=C1NC(=O)C(c2ccccc2)(c2ccccc2)N1 [Phenytoin]	10 to 20	–	–	–	–	–	absences in JME [2]: make absence appear for the first time; effect on JME seizures [2]: can make seizures worse; also recorded: have no effects on or aggravate JME seizures
CCC1(C)CC(=O)NC1=O (stereo not shown) [Ethosuximide]	40 to 100	–	–	–	–	–	effect on JME seizures [2]: no effects; also recorded: have no effects on or aggravate JME seizures; T type VDCC [3]: reduce; T type VDCC ([3]; listed as ethozuximide): reduces
CCCC(CCC)C(=O)O [Valproate]	40 to 150	–	–	–	–	–	–
CN1C(=O)OC(C)(C)C1=O [trimethadione]	–	–	–	–	–	–	effect on JME seizures [2]: no effects in JME; T type VDCC [3]: reduce
B1	–	significantly reduced; also recorded: significantly reversed	–	–	–	–	–
B2	–	significantly reversed	21.0 ± 3.4	−13.7 ± 2.4	9.25 ± 0.43	6.53 ± 0.41	R-type Ca2+ current generated by Cav2.3 [5]: significantly suppressed; inactivation speed of P/Q type VDCC (decelerating effect on calcium inactivation) [6]: abolished the decelerating effect
B3	–	largely maintained	–	–	–	–	–
B4	–	significantly reversed	23.0 ± 3.2	−15.8 ± 1.4	8.87 ± 1.67	6.59 ± 0.44	Ca2+ current density of P/Q-type VDCC (Cav2.1) [6]: moderately increased; inactivation speed of P/Q type VDCC (decelerating effect on calcium inactivation) [6]: abolished the decelerating effect
B5	–	significantly reversed	19.7 ± 2.0	−10.9 ± 1.8	7.60 ± 0.51	6.08 ± 0.22	Ca2+ current density of P/Q-type VDCC (Cav2.1) [6]: prominently increased; sustained component of calcium currents ([6]; compared with vector-transfected control P/Q-type-expressing cells): reduced
B6	–	significantly reversed	17.7 ± 1.9	−17.0 ± 2.5	7.08 ± 0.81	7.00 ± 0.27	inactivation speed of P/Q type VDCC (decelerating effect on calcium inactivation) [6]: abolished the decelerating effect
B7	–	largely maintained	–	–	–	–	–
B8	–	significantly reversed	24.1 ± 1.4	−9.4 ± 1.4	9.08 ± 0.71	6.44 ± 0.33	inactivation speed of P/Q type VDCC (decelerating effect on calcium inactivation) [6]: did not significantly affect
B9	–	largely maintained	–	–	–	–	–
